Laboratory results as given in patent US20090317397A1 (published 2009).

T1: B7 antigen (B7-1) stably expressed on CHO cells (UniProt P33681 35-288, limits assumed)
T1 construct: whole, on cells; also called B7+CHO cells; B7 positive CHO cells
T1 sequence (looked up): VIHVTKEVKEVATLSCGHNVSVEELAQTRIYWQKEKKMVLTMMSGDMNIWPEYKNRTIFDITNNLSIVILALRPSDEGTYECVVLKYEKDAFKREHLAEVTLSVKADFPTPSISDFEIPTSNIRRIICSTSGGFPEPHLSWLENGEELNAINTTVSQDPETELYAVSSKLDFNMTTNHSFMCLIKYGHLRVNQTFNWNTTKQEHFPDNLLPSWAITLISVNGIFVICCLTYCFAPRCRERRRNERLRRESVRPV


What was measured:
[1] = target: CTLA4Ig fusion protein (human) (UniProt P16410); test: Scatchard plot of the solid phase competition data, immobilized CTLA4Ig
[2] = target: CTLA4Ig fusion protein (human) (UniProt P16410); test: solid phase competition, ^125I-B7Ig (4 nM) on immobilized CTLA4Ig
[3] = target: CTLA4Ig fusion protein (human) (UniProt P16410); test: solid phase binding, 4 nM ^125I-B7Ig on immobilized CTLA4Ig
[4] = target: T1, B7 antigen (B7-1) stably expressed on …; test: cell enzyme immunoassay on fixed B7-1+ CHO cells

Row | Molecule | binding result [4] | further results
1 | B7Ig fusion protein (from UniProt P33681 35-241) (Fc fusion) | – | Kd [1]: 12 nM; IC50 [2]: 175 nM; radioactivity bound to wells treated without competitor [3]: 28300 cpm
2 | CTLA4/CD28Ig hybrid fusion protein HS12 (Fc fusion, not shown: human IgG1 hinge (Cys to Ser), CH2, CH3; junction printed as DQE) NKILVKQSPMLVAYDNAVNLSCKYSYNLFSREFRASLHKGLDSAVEVCVATYMMGNELQVYSKTGFNCDGKLGNESVTFYLQNLYVNQTDIYFCKIELMYPPPYYLGIGNGTQIHVKGKHLCPS | binds | –
3 | CTLA4/CD28Ig hybrid fusion protein HS2 (Fc fusion, range 23-96; not shown: human IgG1 hinge (Cys to Ser), CH2, CH3; junction printed as DQE) AMHVAQPAVVLASSRGIASFVCKYSYNLFSREFRASLHKGLDSAVEVCVVYGNYSQQLQVYSKTGFNCDGKLGNESVTFYLQNLYVNQTDIYFCKIELMYPPPYYLGIGNGTQIYVIDPEPCPDSD | binds | –
4 | CTLA4/CD28Ig hybrid fusion protein HS4 (Fc fusion, range 1-96; also called the CD28Ig analog; not shown: human IgG1 hinge (Cys to Ser), CH2, CH3; junction printed as DQE) NKILVKQSPMLVAYDNAVNLSCKYSYNLFSREFRASLHKGLDSAVEVCVVYGNYSQQLQVYSKTGFNCDGKLGNESVTFYLQNLYVNQTDIYFCKIELMYPPPYYLGIGNGTQIYVIDPEPCPD | – | fold less binding than wild type CTLA4Ig [4]: ~5 fold; increase in binding relative to CD28Ig [4]: ~2.5 orders of magnitude
5 | CTLA4/CD28Ig hybrid fusion protein HS10 (Fc fusion, range 1-49;range 58-96; not shown: human IgG1 hinge (Cys to Ser), CH2, CH3; junction printed as DQE) NKILVKQSPMLVAYDNAVNLSCKYSYNLFSREFRASLHKGLDSAVEVCVATYMMGNELQVYSKTGFNCDGKLGNESVTFYLQNLYVNQTDIYFCKIELMYPPPYYLGIGNGTQIYVIDPEPCPD | binds | –
6 | CTLA4/CD28Ig hybrid fusion protein HS7 (Fc fusion, range 1-24;range 33-96; not shown: human IgG1 hinge (Cys to Ser), CH2, CH3; junction printed as DQE) NKILVKQSPMLVAYDNAVNLSCKYASPGKATEFRASLHKGLDSAVEVCVVYGNYSQQLQVYSKTGFNCDGKLGNESVTFYLQNLYVNQTDIYFCKIELMYPPPYYLGIGNGTQIYVIDPEPCPD | – | % binding activity relative to CTLA4Ig [4]: ~44%
7 | CTLA4/CD28Ig hybrid fusion protein HS4-A (Fc fusion, not shown: human IgG1 hinge (Cys to Ser), CH2, CH3; junction printed as DQE) NKILVKQSPMLVAYDNAVNLSCKYSYNLFSREFRASLHKGLDSAVEVCVVYGNYSQQLQVYSKTGFNCDGKLGNESVTFYLQNLYVNQTDIYFCKIELMYPPPYYLGIGNGTQIHVKGKHLCPS | – | % of wild type binding [4]: ~2%
8 | CTLA4/CD28Ig hybrid fusion protein HS11 (Fc fusion, range 1-24;range 33-49;range 58-96; not shown: human IgG1 hinge (Cys to Ser), CH2, CH3; junction printed as DQE) NKILVKQSPMLVAYDNAVNLSCKYASPGKATEFRASLHKGLDSAVEVCVATYMMGNELQVYSKTGFNCDGKLGNESVTFYLQNLYVNQTDIYFCKIELMYPPPYYLGIGNGTQIYVIDPEPCPD | binds | –
9 | CTLA4/CD28Ig hybrid fusion protein HS13 (Fc fusion, not shown: human IgG1 hinge (Cys to Ser), CH2, CH3; junction printed as DQE) NKILVKQSPMLVAYDNAVNLSCKYASPGKATEFRASLHKGLDSAVEVCVATYMMGNELQVYSKTGFNCDGKLGNESVTFYLQNLYVNQTDIYFCKIELMYPPPYYLGIGNGTQIHVKGKHLCPS | binds | –
10 | CTLA4/CD28Ig hybrid fusion protein HS8 (Fc fusion, not shown: human IgG1 hinge (Cys to Ser), CH2, CH3; junction printed as DQE) NKILVKQSPMLVAYDNAVNLSCKYASPGKATEFRASLHKGLDSAVEVCVVYGNYSQQLQVYSKTGFNCDGKLGNESVTFYLQNLYVNQTDIYFCKIELMYPPPYYLGIGNGTQIHVKGKHLCPS | – | % of wild type binding [4]: ~60%
11 | CTLA4/CD28Ig hybrid fusion protein HS9 (Fc fusion, range 1-24;range 33-115; not shown: human IgG1 hinge (Cys to Ser), CH2, CH3; junction printed as DQE) NKILVKQSPMLVAYDNAVNLSCKYASPGKATEFRASLHKGLDSAVEVCVVYGNYSQQLQVYSKTGFNCDGKLGNESVTFYLQNLYVNQTDIYFCKIEVMYPPPYLDNEKSNGTIIYVIDPEPCPD | binds | –
12 | CTLA4/CD28Ig hybrid fusion protein HS4-B (Fc fusion, range 1-115; not shown: human IgG1 hinge (Cys to Ser), CH2, CH3; junction printed as DQE) NKILVKQSPMLVAYDNAVNLSCKYSYNLFSREFRASLHKGLDSAVEVCVVYGNYSQQLQVYSKTGFNCDGKLGNESVTFYLQNLYVNQTDIYFCKIEVMYPPPYLDNEKSNGTIIYVIDPEPCPD | binds | –
13 | CTLA4/CD28Ig hybrid fusion protein HS5 (Fc fusion, CD28Ig itself runs to about 134; not shown: human IgG1 hinge (Cys to Ser), CH2, CH3; junction printed as DQE) NKILVKQSPMLVAYDNAVNLSCKYASPGKATEFRASLHKGLDSAVEVCVVYGNYSQQLQVYSKTGFNCDGKLGNESVTFYLQNLYVNQTDIYFCKIEVMYPPPYLDNEKSNGTIIHVKGKHLCPS | binds | –
14 | CTLA4/CD28Ig hybrid fusion protein HS6 (Fc fusion, range 25-32; not shown: human IgG1 hinge (Cys to Ser), CH2, CH3; junction printed as DQE) AMHVAQPAVVLASSRGIASFVCEYSYNLFSREVRVTVLRQADSQVTEVCAATYMMGNELTFLDDSICTGTSSGNQVNLTIQGLRAMDTGLYICKVELMYPPPYYLGIGNGTQIYVIDPEPCPDSD | binds | –
